Laboratory results from paper PMC4976051 (Journal of molecular biology, 2016).

Target: T1, E. coli RecB (E. coli, UniProt P08394 1-1180)
T1 sequence (looked up): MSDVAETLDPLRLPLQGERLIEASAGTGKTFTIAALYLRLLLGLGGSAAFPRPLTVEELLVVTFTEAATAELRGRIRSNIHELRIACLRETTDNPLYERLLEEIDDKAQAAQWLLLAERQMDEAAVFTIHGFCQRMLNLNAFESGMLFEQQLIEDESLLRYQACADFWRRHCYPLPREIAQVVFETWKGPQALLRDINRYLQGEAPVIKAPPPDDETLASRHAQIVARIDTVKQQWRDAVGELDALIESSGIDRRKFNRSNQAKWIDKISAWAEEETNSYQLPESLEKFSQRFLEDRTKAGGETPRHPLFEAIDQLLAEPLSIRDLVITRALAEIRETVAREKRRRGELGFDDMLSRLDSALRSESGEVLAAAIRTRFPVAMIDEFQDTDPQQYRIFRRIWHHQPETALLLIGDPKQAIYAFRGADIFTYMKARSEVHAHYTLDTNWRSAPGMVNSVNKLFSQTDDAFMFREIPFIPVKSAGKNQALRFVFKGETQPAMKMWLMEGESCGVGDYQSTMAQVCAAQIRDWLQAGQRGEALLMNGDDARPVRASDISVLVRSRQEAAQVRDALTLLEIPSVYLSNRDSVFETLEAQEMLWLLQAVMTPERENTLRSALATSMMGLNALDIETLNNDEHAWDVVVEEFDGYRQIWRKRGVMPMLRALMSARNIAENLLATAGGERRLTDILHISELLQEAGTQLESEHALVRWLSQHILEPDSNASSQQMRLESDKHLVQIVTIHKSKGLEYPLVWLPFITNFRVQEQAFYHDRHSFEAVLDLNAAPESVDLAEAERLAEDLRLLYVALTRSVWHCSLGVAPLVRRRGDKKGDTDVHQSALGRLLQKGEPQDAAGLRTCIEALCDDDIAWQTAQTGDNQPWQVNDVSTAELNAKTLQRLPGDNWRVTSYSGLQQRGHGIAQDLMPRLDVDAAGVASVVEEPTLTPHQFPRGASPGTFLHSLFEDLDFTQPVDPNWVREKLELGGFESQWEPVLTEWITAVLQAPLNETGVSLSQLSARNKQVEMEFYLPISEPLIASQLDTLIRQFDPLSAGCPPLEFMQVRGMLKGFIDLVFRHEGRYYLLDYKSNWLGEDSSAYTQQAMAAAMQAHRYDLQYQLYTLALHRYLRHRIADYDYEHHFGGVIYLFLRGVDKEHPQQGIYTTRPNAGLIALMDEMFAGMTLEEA
Assay: reconstitution from purified subunits

B1: E. coli RecC (natural protein, UniProt P07648 1-1122, looked up)
chain: MLRVYHSNRLDVLEALMEFIVERERLDDPFEPEMILVQSTGMAQWLQMTLSQKFGIAANIDFPLPASFIWDMFVRVLPEIPKESAFNKQSMSWKLMTLLPQLLEREDFTLLRHYLTDDSDKRKLFQLSSKAADLFDQYLVYRPDWLAQWETGHLVEGLGEAQAWQAPLWKALVEYTHQLGQPRWHRANLYQRFIETLESATTCPPGLPSRVFICGISALPPVYLQALQALGKHIEIHLLFTNPCRYYWGDIKDPAYLAKLLTRQRRHSFEDRELPLFRDSENAGQLFNSDGEQDVGNPLLASWGKLGRDYIYLLSDLESSQELDAFVDVTPDNLLHNIQSDILELENRAVAGVNIEEFSRSDNKRPLDPLDSSITFHVCHSPQREVEVLHDRLLAMLEEDPTLTPRDIIVMVADIDSYSPFIQAVFGSAPADRYLPYAISDRRARQSHPVLEAFISLLSLPDSRFVSEDVLALLDVPVLAARFDITEEGLRYLRQWVNESGIRWGIDDDNVRELELPATGQHTWRFGLTRMLLGYAMESAQGEWQSVLPYDESSGLIAELVGHLASLLMQLNIWRRGLAQERPLEEWLPVCRDMLNAFFLPDAETEAAMTLIEQQWQAIIAEGLGAQYGDAVPLSLLRDELAQRLDQERISQRFLAGPVNICTLMPMRSIPFKVVCLLGMNDGVYPRQLAPLGFDLMSQKPKRGDRSRRDDDRYLFLEALISAQQKLYISYIGRSIQDNSERFPSVLVQELIDYIGQSHYLPGDEALNCDESEARVKAHLTCLHTRMPFDPQNYQPGERQSYAREWLPAASQAGKAHSEFVQPLPFTLPETVPLETLQRFWAHPVRAFFQMRLQVNFRTEDSEIPDTEPFILEGLSRYQINQQLLNALVEQDDAERLFRRFRAAGDLPYGAFGEIFWETQCQEMQQLADRVIACRQPGQSMEIDLACNGVQITGWLPQVQPDGLLRWRPSLLSVAQGMQLWLEHLVYCASGGNGESRLFLRKDGEWRFPPLAAEQALHYLSQLIEGYREGMSAPLLVLPESGGAWLKTCYDAQNDAMLDDDSTLQKARTKFLQAYEGNMMVRGEGDDIWYQRLWRQLTPETMEAIVEQSQRFLLPLFRFNQS
B1: binds.
